Assay results as given in US12077763B2, “RNA-based control of powdery mildew” (Greenlight Biosciences, Inc., priority 2021, dated 2024).

B1: GS2804 (nucleic acid)
sense: UUUUAAAGCUAUGUAUCCUCAAGUAACAGAAUUAGAAAACCUAGUUUUCAAAUUGAGAUUUUGGAAAAAAUCUAACAACCACUUCACUUGGCUCCAUCAAUUUUGGAAAUAUAACUUAGGAGAUCUAAAACACGGCGAGAGUAACCCCAUUCAUUAUCAUACCAUGAUACGAGUUUGACAAAGUUGUCAUUGAGCGAGAUUCCAGCUUUCGCGUCGAAAAUGGAUGAGUGAUUAUCACCGAUUAAAUCAGUUGAAACGAUGUCAUCCUCAGUAUAAGAAAGUAUGCCUUUUAAUUCACCAUUGGCAGCCUCCUUGAUAGCAGCCUUAAUUUGGUCAUAAGUAGCACCCUUUCCAAUGCGGCAUGUUAAGUCAACAACGGAAACAUUAGCAGUGGGUA
antisense: UACCCACUGCUAAUGUUUCCGUUGUUGACUUAACAUGCCGCAUUGGAAAGGGUGCUACUUAUGACCAAAUUAAGGCUGCUAUCAAGGAGGCUGCCAAUGGUGAAUUAAAAGGCAUACUUUCUUAUACUGAGGAUGACAUCGUUUCAACUGAUUUAAUCGGUGAUAAUCACUCAUCCAUUUUCGACGCGAAAGCUGGAAUCUCGCUCAAUGACAACUUUGUCAAACUCGUAUCAUGGUAUGAUAAUGAAUGGGGUUACUCUCGCCGUGUUUUAGAUCUCCUAAGUUAUAUUUCCAAAAUUGAUGGAGCCAAGUGAAGUGGUUGUUAGAUUUUUUCCAAAAUCUCAAUUUGAAAACUAGGUUUUCUAAUUCUGUUACUUGAGGAUACAUAGCUUUAAAA
B2: GS2680 (nucleic acid)
sense: UACUAACAAACUGUCCACCAAAAGUAUAUAUAAUUCCUGCAACUGAGGGAGUAGAUCGCUUGCAAAUAAAAUCAAAAUCUAGCAUUCCUUGAACAGCUCUAGGCUGAAGACCAUAGACGAAACAUCUUGUUUUAUCAUGGAAGAGUGUAUGAGUUGCGUGAGGGCUCAAUGGGCGGCUAGGAGCAGCAAACCGACAGAUGUUAUCAUUGGCUGAUUGCCCAACUUUCGUAGUAUCAUUUGGAGUAGCUGAUGGCAUUUUAAAAUAUUACAAGGUCACAGAGUGUAAUUUUGGGCCUGAUUUCUUCUGUAGAGAUGACUCAAGUAGUAAUAUUUAUCUCUUUCAAUGGUGUAGUAUAUUAAUAGUAUACUCGGGAGAGAAAAUGAUGUGAUAAAAAUUA
antisense: UAAUUUUUAUCACAUCAUUUUCUCUCCCGAGUAUACUAUUAAUAUACUACACCAUUGAAAGAGAUAAAUAUUACUACUUGAGUCAUCUCUACAGAAGAAAUCAGGCCCAAAAUUACACUCUGUGACCUUGUAAUAUUUUAAAAUGCCAUCAGCUACUCCAAAUGAUACUACGAAAGUUGGGCAAUCAGCCAAUGAUAACAUCUGUCGGUUUGCUGCUCCUAGCCGCCCAUUGAGCCCUCACGCAACUCAUACACUCUUCCAUGAUAAAACAAGAUGUUUCGUCUAUGGUCUUCAGCCUAGAGCUGUUCAAGGAAUGCUAGAUUUUGAUUUUAUUUGCAAGCGAUCUACUCCCUCAGUUGCAGGAAUUAUAUAUACUUUUGGUGGACAGUUUGUUAGUA
B3: GS3295 (nucleic acid)
sense: UCAUCUUUUGCCGCUCUUUAUCAUGAUCUUGAUAUGGGAUUUACACCGAUCAACUUUACAUUUUACUGGGCACCUCUACCUUGGAAUCGUGCUCGUGAUCAUGCCCAAAGAACUGUUGCUAGGACGAACCUCGCUCCAAGGGGGCUUUAUGGGAAUCUGCCUCGUAGUAUAAAGUUCUGCAGCUGGCUCUACGGAUUGCAUCUACAACAACUACAACAUCAUCAUCAUCAUCAUCUUCAUCUUCAUCUUC
antisense: GAAGAUGAAGAUGAAGAUGAUGAUGAUGAUGAUGUUGUAGUUGUUGUAGAUGCAAUCCGUAGAGCCAGCUGCAGAACUUUAUACUACGAGGCAGAUUCCCAUAAAGCCCCCUUGGAGCGAGGUUCGUCCUAGCAACAGUUCUUUGGGCAUGAUCACGAGCACGAUUCCAAGGUAGAGGUGCCCAGUAAAAUGUAAAGUUGAUCGGUGUAAAUCCCAUAUCAAGAUCAUGAUAAAGAGCGGCAAAAGAUGA
B4: GS2799 (nucleic acid)
sense: UAGCAACGGGACGUCCACUUUGUACUCUUACAGCUUCACGUGUAUUAUCAAUCACUGAUUGAUGGUACUCAUGAGAGCCAUGAGAAAAAUUCAUACGGACAACAUUCAGACCAGCUCUUCGAAGUCCAUUUAAGGCCUCGACAUUGUUAGUUUUGGGGCCAAUAGUACAGAUAAUCGAGGUUCGACGAUAAUUCUUAGAGGUGGCAUACUCAGUGUCAAGUUGUGAUAGCCAUUCAAUGCGAGUAGAGCUGGUUAGGUGAUUCAUAGCUGAAACCAUAUUUUGAUCUAAUGAGAACUUUUAUUUGAUGUGAACGUAAAUAGUUGAGGAUGUGUAAAGUUGAGGAGAGAGUUGGCCAAAGAUACUCUUUGAGGGUAGCAAAUUUCGUUUAUCUUAUUAU
antisense: AUAAUAAGAUAAACGAAAUUUGCUACCCUCAAAGAGUAUCUUUGGCCAACUCUCUCCUCAACUUUACACAUCCUCAACUAUUUACGUUCACAUCAAAUAAAAGUUCUCAUUAGAUCAAAAUAUGGUUUCAGCUAUGAAUCACCUAACCAGCUCUACUCGCAUUGAAUGGCUAUCACAACUUGACACUGAGUAUGCCACCUCUAAGAAUUAUCGUCGAACCUCGAUUAUCUGUACUAUUGGCCCCAAAACUAACAAUGUCGAGGCCUUAAAUGGACUUCGAAGAGCUGGUCUGAAUGUUGUCCGUAUGAAUUUUUCUCAUGGCUCUCAUGAGUACCAUCAAUCAGUGAUUGAUAAUACACGUGAAGCUGUAAGAGUACAAAGUGGACGUCCCGUUGCUA
B5: ES49: dsRNA trigger SEQ ID NO 112; gene target Hypotethical effector (nucleic acid)
DNA: ATGCGTTTCATCATAGGAGCTGTCGTCTCTTCACTCATTTTGTCGCCAATTTCAGTGCTTTCTATGGCGGCTAGTAATGACTCTACCGAAGCTGCAGCGCATATCATAAATGATTCTATACTAGAAGATGTTTCGAACGTTGCAGATTTCGACTGGTCTTCAACGTCATATCAAGGCCTAGAGAAAAGATTTTGTTTCAGACGAGGATGCAAGGAAGAAAAGCTCAAGAGGACATCAGGTTTCCAATGCAAAAAGAAGTACATCAGCTCGGAGAAAATTGAGAGAGCAAAAGCCGCTGGCTGTCCGGAAATCAAAAAAAATAAGCAGCGATCCGCTTTTCCTTCTCTCTACACTGCATCCGACTTTGCTGTTCCAGGTCCTTACCTAGAATGGCCGATCAGCCGCAATGGAAGGTTTTGGAACAAATTGAGTAAGGGCAAGTACCGTATCATCATGACCAAAAGCTGCAAGGTGG
B6: GS2684 (nucleic acid)
sense: UUGGCAGCUCGCCAUUUCUUAUCAAAGAGAUACCUAAAUGAUAAACUUAAAAUACUUGCAGUGAAUAUAUCUGCUAGAGUAAGACGCUCUCCAACUAAGAAUGUGUUGUUUUGAAGAGUAUCCUCAAAAAUUUGAGCAUAAUCGAUUGUUUUUUUGACACCUUCAUCAUAAACCUUUUUAUUGUAUGCGACAAUACCAAAAAAAGGAUAAAGCCAGCUGGCAUAGCAGUUACUAAUAUCUUGAUUGACAAAAGACAUCCACUUUAAAAUAGAGGCAUAAGUCUAAUUAUGAAAGUCCACACGGAGUGUUAAGACAGGGACUGUUUUAUGUCAAGGAAAAUUUUUCAACUGAGAGAGCUUAGCAUACUCCUGCUUGGUUUU
antisense: AAAACCAAGCAGGAGUAUGCUAAGCUCUCUCAGUUGAAAAAUUUUCCUUGACAUAAAACAGUCCCUGUCUUAACACUCCGUGUGGACUUUCAUAAUUAGACUUAUGCCUCUAUUUUAAAGUGGAUGUCUUUUGUCAAUCAAGAUAUUAGUAACUGCUAUGCCAGCUGGCUUUAUCCUUUUUUUGGUAUUGUCGCAUACAAUAAAAAGGUUUAUGAUGAAGGUGUCAAAAAAACAAUCGAUUAUGCUCAAAUUUUUGAGGAUACUCUUCAAAACAACACAUUCUUAGUUGGAGAGCGUCUUACUCUAGCAGAUAUAUUCACUGCAAGUAUUUUAAGUUUAUCAUUUAGGUAUCUCUUUGAUAAGAAAUGGCGAGCUGCCAA
B7: GS2685 (nucleic acid)
sense: GUCUCAUAUCACGAACAGCGAAGCGACCUAAUGGAGGAUAACUUGAAAAUGACUCAACACACAUAGGUUUAGAUGGAAUCAUUUUAACAAUUGCUGCGUCACCAGAUUUAACAAAUUUUGGAGUUGCCUCAAUAGACUUUCCAGUACGACGAUCAAUUUUUUCAAGAAGUUCUGCAAAUUUGCAAGCAAUGUGAGCCGUAUGACAAUCAAGUACAGGUGCGUAACCAGCUCCAAUUUGACCUGGGUGGUUUAACACGAUAACUUGUGCGGUAAAAUGCUCGGCACCCUUAGGGGGGUCAUUCUUAGAAUCACCACAAACAUUACCACGACGGAUUUCUUUCACCGAAACGUUCUUUACAUUGAAGCCAA
antisense: UUGGCUUCAAUGUAAAGAACGUUUCGGUGAAAGAAAUCCGUCGUGGUAAUGUUUGUGGUGAUUCUAAGAAUGACCCCCCUAAGGGUGCCGAGCAUUUUACCGCACAAGUUAUCGUGUUAAACCACCCAGGUCAAAUUGGAGCUGGUUACGCACCUGUACUUGAUUGUCAUACGGCUCACAUUGCUUGCAAAUUUGCAGAACUUCUUGAAAAAAUUGAUCGUCGUACUGGAAAGUCUAUUGAGGCAACUCCAAAAUUUGUUAAAUCUGGUGACGCAGCAAUUGUUAAAAUGAUUCCAUCUAAACCUAUGUGUGUUGAGUCAUUUUCAAGUUAUCCUCCAUUAGGUCGCUUCGCUGUUCGUGAUAUGAGAC
B8: GS2732 (nucleic acid)
sense: GGAAAAUGUGAGUUGCCGCCAUCGAUAAUUAUGUCUCCUUGAUCGAGGAAUGGCAAUAAUGUUUCAAUAAAAUCAUCAACAGGCUUUCCAGCCAUGACAAGCAGCAUAAUACGACGUGGUUUUUUUAGUUUACUCACAAAUUCCUGGAUAGAACGAGCACCUUCAAUAGAUUUCCCUUUUGCCUCAUUUUCAAGAAAGUGGUCUACCUUAGCUACAGUUCGAUUAUAUGCAAUAACAUUAAAUCCAUGGUCUGCAGCAUUCAGAAUUAGAUUCUGCCCCAUGACAGCUAGACCGAUAAGGCCAAAGUCUCCUGUAGCAGCACUCAUAUUUUUUUGAUUAUAAAUUUAGAAGCCCAAAGACUGGAGCUUAUAUGGAGAACAGAGAUUACACAGAUGGGA
antisense: UCCCAUCUGUGUAAUCUCUGUUCUCCAUAUAAGCUCCAGUCUUUGGGCUUCUAAAUUUAUAAUCAAAAAAAUAUGAGUGCUGCUACAGGAGACUUUGGCCUUAUCGGUCUAGCUGUCAUGGGGCAGAAUCUAAUUCUGAAUGCUGCAGACCAUGGAUUUAAUGUUAUUGCAUAUAAUCGAACUGUAGCUAAGGUAGACCACUUUCUUGAAAAUGAGGCAAAAGGGAAAUCUAUUGAAGGUGCUCGUUCUAUCCAGGAAUUUGUGAGUAAACUAAAAAAACCACGUCGUAUUAUGCUGCUUGUCAUGGCUGGAAAGCCUGUUGAUGAUUUUAUUGAAACAUUAUUGCCAUUCCUCGAUCAAGGAGACAUAAUUAUCGAUGGCGGCAACUCACAUUUUCC

Each molecule was assayed on E. necator (assay: Leaf disc assay, dry inoculum (settling tower), decrease in disease severity / hyphal growth (Example 2)). Conditions: decrease in disease severity (hyphal growth) relative to untreated control; time point 1 (untreated control hyphal growth ≥50%); value ± SE.
B1 was tested, and the “% decrease =/− SE TP1” value was 32 ± 5%. B2 was tested, and the “% decrease =/− SE TP1” value was 12 ± 4%. B3 was tested, and the “% decrease =/− SE TP1” value was 33 ± 6%. In the case of B4, the “% decrease =/− SE TP1” value is reported as 31 ± 5%. In the case of B5, the “% decrease =/− SE TP1” value is reported as 9 ± 1%. With B6 the “% decrease =/− SE TP1” value was 31 ± 4%. With B7 the “% decrease =/− SE TP1” value was 23 ± 0%.

Same assay, conditions: decrease in disease severity (hyphal growth) relative to untreated control; time point 2; value ± SE
B1 was tested, and the “% decrease =/− SE TP2” value was 10 ± 8%. For B2, the “% decrease =/− SE TP2” value was 11 ± 5%. B8 was tested, and the “% decrease =/− SE TP2” value was 18 ± 10%. For B3, the “% decrease =/− SE TP2” value was 26 ± 8%. In the case of B4, the “% decrease =/− SE TP2” value is reported as 20 ± 8%. For B5, the “% decrease =/− SE TP2” value was 6 ± 3%. With B6 the “% decrease =/− SE TP2” value was 18 ± 4%. With B7 the “% decrease =/− SE TP2” value was 15 ± 0%.
